Measured values taken from patent US20190359723A1 (CARSGEN THERAPEUTICS, published 2019).
Numbering of substitutions follows the chain as printed.

T1: IL-13RA2 endogenously expressed on U251 cells (human, UniProt Q14627 27-380)
T1 construct: whole, on cells; also called U251 cells expressing IL13RA2; U251 (IL-13RA2-positive)
T1 sequence (looked up): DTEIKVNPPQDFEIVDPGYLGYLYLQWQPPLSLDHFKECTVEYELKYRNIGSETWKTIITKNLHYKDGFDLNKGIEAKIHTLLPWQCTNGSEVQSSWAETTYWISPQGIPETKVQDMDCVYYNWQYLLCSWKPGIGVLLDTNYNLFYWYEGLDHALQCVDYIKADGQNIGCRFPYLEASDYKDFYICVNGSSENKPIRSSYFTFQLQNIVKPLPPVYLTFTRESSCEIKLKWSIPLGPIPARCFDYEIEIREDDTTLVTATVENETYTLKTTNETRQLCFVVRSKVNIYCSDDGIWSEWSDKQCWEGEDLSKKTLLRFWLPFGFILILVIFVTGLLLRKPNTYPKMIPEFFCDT

T2: Murine IL-13RA2 (murine, UniProt O88786 22-334, limits assumed)
T2 construct: Bought recombinant protein; coated on the ELISA plate at 5 ug/ml
T2 sequence (looked up): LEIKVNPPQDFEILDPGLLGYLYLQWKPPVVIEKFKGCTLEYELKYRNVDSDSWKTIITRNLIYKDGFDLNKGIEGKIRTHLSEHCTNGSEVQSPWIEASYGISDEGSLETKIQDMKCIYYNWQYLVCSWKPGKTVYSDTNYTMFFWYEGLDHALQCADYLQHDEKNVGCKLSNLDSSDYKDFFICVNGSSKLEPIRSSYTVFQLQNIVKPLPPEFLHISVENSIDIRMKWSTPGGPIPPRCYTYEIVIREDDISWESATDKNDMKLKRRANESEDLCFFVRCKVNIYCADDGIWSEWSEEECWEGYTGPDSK

B1: 5D7 (scFv) (scFv)
scFv: EVQLLESGGGLVQPGGSLRLSCAASGFTFSNYAMSWVRQAPGKGLEWVSGIRSSGGRTFYADSVKGRFTISRDNSKNTLYLQMNSLRAEDTAVYYCARVAFSGSFDYWGQGTLVTVSSGGGGSGGGGSGGGGSDIQMTQSPSTLSASVGDRVTITCRASQSISSWLAWYQQKPGKAPKLLIYDASSLESGVPSRFSGSGSGTEFTLTISSLQPDDFATYYCQQRNRYPPTFGQGTKVEIK
notes: also called clone 5D7
B2: 5G3 (scFv) (scFv)
scFv: B1 scFv with N31S, A33V, M34L, G50A, S53G, G55A, R57N, F59Y
notes: also called clone 5G3
B3: 1B11 (scFv) (scFv)
scFv: EVQLLESGGGLVQPGGSLRLSCAASGFTFSRDALNWVRQAPGKGLEWVSAISGSGGSTFYADSVKGRFTISRDNSKNTLYLQMNSLRAEDTAVYYCAKVRYGWGAGAFDYWGQGTLVTVSSGGGGSGGGGSGGGGSDIQMTQSPSTLSASVGDRVTITCRASQSISSWLAWYQQKPGKAPKLLIYDASSLESGVPSRFSGSGSGTEFTLTISSLQPDDFATYYCQQYDTYPPITFGQGTKVEIK
notes: also called clone 1B11
B4: 1D11 (scFv) (scFv)
scFv: B3 scFv with S30G, R31T, D32I, A33P, L34M, N35S, A50S, G55A, F59Y
notes: also called clone 1D11
B5: 1H7 (scFv) (scFv)
scFv: B3 scFv with S30R, D32Y, L34M, N35S, A50G, S57G, F59Y
notes: also called clone 1H7
B6: 2D4 (scFv) (scFv)
scFv: B3 scFv with S30R, R31K, D32Y, L34M, N35G, A50G, G55V, F59Y
notes: also called clone 2D4
B7: 2A5 (scFv) (scFv)
scFv: B3 scFv with D32Y, L34M, G53A, S57G, F59Y
notes: also called clone 2A5
B8: 2C7 (scFv) (scFv)
scFv: B3 scFv with S30K, R31L, D32P, L34M, N35S, S52T, F59Y
notes: also called clone 2C7
B9: 1D8 (scFv) (scFv)
scFv: B3 scFv with D32Y, L34M, S52N, G53A, F59Y
notes: also called clone 1D8
B10: 5D7 (scFv_Fc form) (Fc fusion)
scFv: B1 scFv
notes: not shown: human Fc segment of the eukaryotic expression vector V152
B11: 2D4 (scFv_Fc form) (Fc fusion)
scFv: B3 scFv with S30R, R31K, D32Y, L34M, N35G, A50G, G55V, F59Y
notes: as for B10
B12: 1B11 (scFv_Fc form) (Fc fusion)
scFv: B3 scFv
notes: as for B10
B13: 2C7 (scFv_Fc form) (Fc fusion)
scFv: B3 scFv with S30K, R31L, D32P, L34M, N35S, S52T, F59Y
notes: as for B10
B14: 5G3 (scFv_Fc form) (Fc fusion)
scFv: B1 scFv with N31S, A33V, M34L, G50A, S53G, G55A, R57N, F59Y
notes: as for B10

molecular target: T3, IL-13RA2 huFc (human); experiment: SPR (Biacore T200), nickel-purified scFv
T3 construct: Expressed in 293F cells, purified on protein A; also called human IL13RA2; recombinant IL-13RA2
Description: (§1) IL-13RA2 huFc was coated on the CMS chip by amino coupling, coated to about 500 RU, and the gradiently diluted antibodies were passed through the antigen-coated channel at a flow rate of 30 ul/min as a mobile phase. The running buffer was HBS-N and the temperature was 25° C. The experimental data was analyzed by BIAevaluation 3.2 and the kinetic curves were fitted using a 1:1 langmuir model.
Affinity purification was performed using a nickel column, affinity was measured using biacore T200, and the association and dissociation constants of the affinity matured antibodies are shown as in FIG. 10A.
Target sequence in this assay (chain, as listed by the source limits assumed): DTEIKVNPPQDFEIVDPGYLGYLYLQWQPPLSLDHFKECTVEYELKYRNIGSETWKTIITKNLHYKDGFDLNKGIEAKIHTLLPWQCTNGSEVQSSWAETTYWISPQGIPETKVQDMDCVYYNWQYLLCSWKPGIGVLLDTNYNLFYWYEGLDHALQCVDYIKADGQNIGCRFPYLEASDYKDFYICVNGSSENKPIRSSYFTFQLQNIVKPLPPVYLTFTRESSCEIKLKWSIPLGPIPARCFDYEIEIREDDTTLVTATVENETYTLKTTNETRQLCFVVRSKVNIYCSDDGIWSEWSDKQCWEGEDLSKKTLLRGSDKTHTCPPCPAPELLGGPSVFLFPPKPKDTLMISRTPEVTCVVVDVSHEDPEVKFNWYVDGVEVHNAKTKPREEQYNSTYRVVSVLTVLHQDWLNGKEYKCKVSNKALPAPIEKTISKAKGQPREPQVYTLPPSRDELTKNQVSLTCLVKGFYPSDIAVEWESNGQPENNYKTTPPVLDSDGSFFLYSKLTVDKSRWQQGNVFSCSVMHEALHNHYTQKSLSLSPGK

| Kd [nM] | koff [s⁻¹] | kon [M⁻¹ s⁻¹] | Binder |
| --- | --- | --- | --- |
| 5.4 | 0.000443 | 82200 | B1 |
| 8.34 | 0.000586 | 70300 | B2 |
| 17.5 | 0.000803 | 46000 | B3 |
| 9.89 | 0.000386 | 39000 | B4 |
| 12.1 | 0.000765 | 63200 | B5 |
| 8.92 | 0.000745 | 83500 | B6 |
| 15.5 | 0.000656 | 42400 | B7 |
| 5.42 | 0.00041 | 75700 | B8 |
| 13.8 | 0.000911 | 66000 | B9 |

molecular target: T3, IL-13RA2 huFc; experiment: SPR (Biacore), induced scFv supernatant; column head: Dissociation constant Kd(S-1)

| koff [s⁻¹] | Binder |
| --- | --- |
| 0.00154 | B1 |
| 0.000941 | B2 |
| 0.000736 | B3 |
| 0.000677 | B4 |
| 0.000888 | B5 |
| 0.000837 | B6 |
| 0.000788 | B7 |
| 0.000501 | B8 |
| 0.00094 | B9 |

molecular target: T3, IL-13RA2 huFc; experiment: SPR (Biacore T200), ligand IL13Ra2 on the chip, scFv_Fc as analyte at 6.25 to 100 nM, 1:1 binding fit, flow 30 ul/min
Description: as §1
(§2) Affinity was determined using the method of Example 5 using biacore T200, and the results are shown as in FIGS. 11B-11G. […] The association and dissociation constants of the antibodies are shown as in FIG. 11F.

| Kd [nM] | koff [s⁻¹] | kon [M⁻¹ s⁻¹] | Binder |
| --- | --- | --- | --- |
| 0.335 | 0.000247 | 737000 | B10 |
| 0.174 | 0.000113 | 646000 | B11 |
| 1.04 | 0.000263 | 252000 | B12 |
| 0.248 | 9.15e-05 | 369000 | B13 |

molecular target: T1, IL-13RA2 endogenously expressed on U251 …; experiment: flow cytometry on U251 cells, scFv_Fc form, 5-fold dilutions from 2,000 nM, FITC anti-human IgG
Description: Following the method of Example 6, cells were harvested, washed once with a growth medium, and resuspended in PBS, and the cell concentration was adjusted to 4E+5 cells/ml. The gradiently diluted scFv_Fc fusion antibody was incubated with the cells for 30 minutes on ice, and the antibody was 5-fold serially diluted with 2,000 nM as the initial concentration, into 11 gradients. Then the mixture was incubated with a FITC-labeled anti-human IgG secondary antibody. After two washing steps, detection was performed using a Guava easyCyte™ HT System instrument. […] There is also a 2-8 fold increase compared with the parent antibody.

| EC50 [nM] | Binder |
| --- | --- |
| 0.53 | B14 |
| 0.56 | B10 |
| 0.37 | B11 |
| 0.47 | B12 |
| 0.57 | B13 |

molecular target: T3, IL-13RA2 huFc; experiment: Biacore, induced supernatant of the scFv clone; parent 32H4

| fold lower dissociation constant Kd than the parent clone [times] | Binder |
| --- | --- |
| > 10 | B1 |
| > 10 | B2 |

molecular target: T3, IL-13RA2 huFc; experiment: SPR (Biacore T200), scFv_Fc forms on IL-13RA2 huFc, summary table
Description: as §1, §2

| Kd [nM] | koff [s⁻¹] | kon [M⁻¹ s⁻¹] | Binder |
| --- | --- | --- | --- |
| 0.194 | 0.000134 | 690000 | B14 |
| 0.335 | 0.000247 | 737000 | B10 |
| 0.174 | 0.000113 | 646000 | B11 |
| 1.04 | 0.000263 | 253000 | B12 |
| 0.248 | 9.15e-05 | 369000 | B13 |

molecular target: T3, IL-13RA2 huFc; experiment: SPR (Biacore T200), ligand IL13Ra2 on the chip, scFv_Fc as analyte at 100, 50, 25 and 6.25 nM, 1:1 binding fit, flow 30 ul/min
Description: as §1, §2

| Kd [nM] | koff [s⁻¹] | kon [M⁻¹ s⁻¹] | Binder |
| --- | --- | --- | --- |
| 0.194 | 0.000134 | 690000 | B14 |

molecular target: T4, IL-13RA1_huFc (human); experiment: ELISA by the method of Example 3, antibody concentration not given; bars assigned by their order in the legend
T4 construct: IL-13RA1 extracellular segment, 'GS', Fc segment Asp104-Lys330 of the human IgG1 heavy chain constant region; also called human IL13RA1
T4 sequence (chain, as listed by the source limits assumed): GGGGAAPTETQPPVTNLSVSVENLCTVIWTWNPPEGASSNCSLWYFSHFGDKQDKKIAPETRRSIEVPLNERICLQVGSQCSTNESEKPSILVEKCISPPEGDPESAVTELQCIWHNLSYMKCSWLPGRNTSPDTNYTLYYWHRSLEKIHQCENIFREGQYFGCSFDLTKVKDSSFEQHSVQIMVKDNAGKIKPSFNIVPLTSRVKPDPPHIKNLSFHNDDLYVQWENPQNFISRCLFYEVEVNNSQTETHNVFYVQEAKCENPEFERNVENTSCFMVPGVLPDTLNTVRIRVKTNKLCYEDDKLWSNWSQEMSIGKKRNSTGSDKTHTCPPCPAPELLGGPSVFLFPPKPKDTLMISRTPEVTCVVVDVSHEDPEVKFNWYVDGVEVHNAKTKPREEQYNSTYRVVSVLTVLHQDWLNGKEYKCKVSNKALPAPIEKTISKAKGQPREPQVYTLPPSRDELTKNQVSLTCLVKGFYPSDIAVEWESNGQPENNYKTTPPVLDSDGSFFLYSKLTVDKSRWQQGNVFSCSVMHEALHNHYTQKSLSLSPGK
Description: (§3) The species specificity of antibodies 31C2 and 32H4 was determined by standard ELISA. Murine IL-13RA2 was purchased from Sino Biological Inc. The ELISA plate was coated with 100 ul of 5 ug/ml murine IL-13RA2 per well at 4° C. overnight. The coated ELISA plate was washed with PBS three times. 200 ul solution of 2% skim milk powder in PBS per well was added for blocking at room temperature for 1 hour. The plate was washed with PBS three times. The gradiently diluted antibodies with a starting concentration of 10 μg/ml, 3-fold serially diluted, were added and incubated at room temperature for 1 hr. The mixture was washed with PBST three times and washed with PBS three times. HRP-labeled goat anti-human Fc was added and incubated at room temperature for 1 hour. The mixture was washed with PBST three times and washed with PBS three times. After TMB was added for color development for 15 minutes, and the reaction was stopped by the addition of sulfuric acid, and read on a microplate reader.
(§4) The specificity of the antibodies 5D7, 2C7, 5G3, 2D4, 2D3 and 1B11 was determined by standard ELISA following the method of Example 3. The results were shown as in FIG. 10B.

| binding result | Binder |
| --- | --- |
| no binding | B3 |
| no binding | B6 |

molecular target: T2, Murine IL-13RA2; experiment: as above
Description: as §3, §4

| binding result | Binder |
| --- | --- |
| binds | B3 |
| binds | B6 |

molecular target: T3, IL-13RA2 huFc; experiment: Biacore, induced supernatant of the scFv clone; parent 31C2

| fold lower dissociation constant Kd than the parent clone [times] | Binder |
| --- | --- |
| > 10 | B3 |
| > 10 | B4 |
| > 10 | B5 |
| > 10 | B6 |
| > 10 | B7 |
| 10 | B8 |
| > 10 | B9 |
